# Laboratory results as given in publication PMC8991601.
# Experiments:
# [1] = test system: N[C@@H](CCC(=O)O)C(=O)Nc1ccc([N+](=O)[O-])cc1; test: purified protein; conditions: 10 mM Tris-HCl, pH 7.5, 50 °C
# [2] = test system: N[C@@H](CC(=O)O)C(=O)Nc1ccc([N+](=O)[O-])cc1; test: purified protein; conditions: 10 mM Tris-HCl, pH 7.5, 50 °C
Substance,Km [1],Km [2]
cDNPEP (recombinant chicken aspartyl aminopeptidase) (Gallus gallus),137 µM,767 µM
bDNPEP (recombinant bovine aspartyl aminopeptidase) (Bos taurus),314 µM,389 µM
